# According to publication PMC11743776, “Isoxazole-based molecules restore NK cell immune surveillance in hepatocarcinogenesis by targeting TM4SF5 and SLAMF7 linkage” (Signal Transduction and Targeted Therapy, 2025):
# T1: TM4SF5 (Homo sapiens, UniProt O14894)
# T1 construct: Strep-TM4SF5 WT (pulled down from HEK293FT) or HA-TM4SF5 (immunoprecipitated from Huh7KO)
# T1 sequence (O14894 1-197): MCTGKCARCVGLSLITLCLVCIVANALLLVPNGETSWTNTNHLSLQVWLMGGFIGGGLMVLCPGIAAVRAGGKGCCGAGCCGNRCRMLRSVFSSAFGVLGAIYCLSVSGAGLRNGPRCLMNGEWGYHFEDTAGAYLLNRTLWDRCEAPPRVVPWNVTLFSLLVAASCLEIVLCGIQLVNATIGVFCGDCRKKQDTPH
# Target: T1, TM4SF5
# Assay: […]-radioligand binding to pulled-down/immunoprecipitated TM4SF5, blocked by cold ST-5-002; EC50 by titration (about […] or […] for the differently tagged proteins)
# Details: not given
row,Molecule,EC50 [nM]
1,"Cc1ccc(C(=O)Nc2ccc(-c3cc(-c4ccc(O)cc4)no3)cc2)cc1 [ST-5-002, N-(4-(3-(4-hydroxyphenyl)isoxazol-5-yl)phenyl)-4-methylbenzamide]",~850

# Target: not listed separately
# Assay: immunoblot of SLAMF7 level with TM4SF5 expression
# Details: glycan lost; control: WT SLAMF7, TM4SF5 co-expressed
row,Molecule,expression_or_secretion
1,SLAMF7: NQ#2 (protein) parent chain: MAGSPTCLTLIYILWQLTGSAASGPVKELVGSVGGAVTFPLKSKVKQVDSIVWTFNTTPLVTIQPEGGTIIVTQNRNRERVDFPDGGYSLKLSKLKKNDSGIYYVGIYSSSLQQPSTQEYVLHVYEHLSKPKVTMGLQSNKNGTCVTNLTCCMEHGEEDVIYTWKALGQAANESHNGSILPISWRWGESDMTFICVARNPVSRNFSSPILARKLCEGAADDPDSSMVLLCLLLVPLLLSLFVLGLFLWFLKRERQEEYIEEKKRVDICRETPNICPHSGENTEYDTIPHTNRTILKEDPANTVYSTVEIPKKMENPHSLLTMPDTPRLFAYENVI,no change
2,SLAMF7: NQ#23456 (protein) parent chain: MAGSPTCLTLIYILWQLTGSAASGPVKELVGSVGGAVTFPLKSKVKQVDSIVWTFNTTPLVTIQPEGGTIIVTQNRNRERVDFPDGGYSLKLSKLKKNDSGIYYVGIYSSSLQQPSTQEYVLHVYEHLSKPKVTMGLQSNKNGTCVTNLTCCMEHGEEDVIYTWKALGQAANESHNGSILPISWRWGESDMTFICVARNPVSRNFSSPILARKLCEGAADDPDSSMVLLCLLLVPLLLSLFVLGLFLWFLKRERQEEYIEEKKRVDICRETPNICPHSGENTEYDTIPHTNRTILKEDPANTVYSTVEIPKKMENPHSLLTMPDTPRLFAYENVI,increases
3,SLAMF7: NQ#2456 (protein) parent chain: MAGSPTCLTLIYILWQLTGSAASGPVKELVGSVGGAVTFPLKSKVKQVDSIVWTFNTTPLVTIQPEGGTIIVTQNRNRERVDFPDGGYSLKLSKLKKNDSGIYYVGIYSSSLQQPSTQEYVLHVYEHLSKPKVTMGLQSNKNGTCVTNLTCCMEHGEEDVIYTWKALGQAANESHNGSILPISWRWGESDMTFICVARNPVSRNFSSPILARKLCEGAADDPDSSMVLLCLLLVPLLLSLFVLGLFLWFLKRERQEEYIEEKKRVDICRETPNICPHSGENTEYDTIPHTNRTILKEDPANTVYSTVEIPKKMENPHSLLTMPDTPRLFAYENVI,increases
4,SLAMF7: NQ#1456 (protein) parent chain: MAGSPTCLTLIYILWQLTGSAASGPVKELVGSVGGAVTFPLKSKVKQVDSIVWTFNTTPLVTIQPEGGTIIVTQNRNRERVDFPDGGYSLKLSKLKKNDSGIYYVGIYSSSLQQPSTQEYVLHVYEHLSKPKVTMGLQSNKNGTCVTNLTCCMEHGEEDVIYTWKALGQAANESHNGSILPISWRWGESDMTFICVARNPVSRNFSSPILARKLCEGAADDPDSSMVLLCLLLVPLLLSLFVLGLFLWFLKRERQEEYIEEKKRVDICRETPNICPHSGENTEYDTIPHTNRTILKEDPANTVYSTVEIPKKMENPHSLLTMPDTPRLFAYENVI,increases
5,SLAMF7: NQ#3 (protein) parent chain: MAGSPTCLTLIYILWQLTGSAASGPVKELVGSVGGAVTFPLKSKVKQVDSIVWTFNTTPLVTIQPEGGTIIVTQNRNRERVDFPDGGYSLKLSKLKKNDSGIYYVGIYSSSLQQPSTQEYVLHVYEHLSKPKVTMGLQSNKNGTCVTNLTCCMEHGEEDVIYTWKALGQAANESHNGSILPISWRWGESDMTFICVARNPVSRNFSSPILARKLCEGAADDPDSSMVLLCLLLVPLLLSLFVLGLFLWFLKRERQEEYIEEKKRVDICRETPNICPHSGENTEYDTIPHTNRTILKEDPANTVYSTVEIPKKMENPHSLLTMPDTPRLFAYENVI,no change
6,SLAMF7: NQ#123 (protein) parent chain: MAGSPTCLTLIYILWQLTGSAASGPVKELVGSVGGAVTFPLKSKVKQVDSIVWTFNTTPLVTIQPEGGTIIVTQNRNRERVDFPDGGYSLKLSKLKKNDSGIYYVGIYSSSLQQPSTQEYVLHVYEHLSKPKVTMGLQSNKNGTCVTNLTCCMEHGEEDVIYTWKALGQAANESHNGSILPISWRWGESDMTFICVARNPVSRNFSSPILARKLCEGAADDPDSSMVLLCLLLVPLLLSLFVLGLFLWFLKRERQEEYIEEKKRVDICRETPNICPHSGENTEYDTIPHTNRTILKEDPANTVYSTVEIPKKMENPHSLLTMPDTPRLFAYENVI,no change
7,SLAMF7: NQ#456 (protein) parent chain: MAGSPTCLTLIYILWQLTGSAASGPVKELVGSVGGAVTFPLKSKVKQVDSIVWTFNTTPLVTIQPEGGTIIVTQNRNRERVDFPDGGYSLKLSKLKKNDSGIYYVGIYSSSLQQPSTQEYVLHVYEHLSKPKVTMGLQSNKNGTCVTNLTCCMEHGEEDVIYTWKALGQAANESHNGSILPISWRWGESDMTFICVARNPVSRNFSSPILARKLCEGAADDPDSSMVLLCLLLVPLLLSLFVLGLFLWFLKRERQEEYIEEKKRVDICRETPNICPHSGENTEYDTIPHTNRTILKEDPANTVYSTVEIPKKMENPHSLLTMPDTPRLFAYENVI,increases
8,SLAMF7: NQ#1 (protein) parent chain: MAGSPTCLTLIYILWQLTGSAASGPVKELVGSVGGAVTFPLKSKVKQVDSIVWTFNTTPLVTIQPEGGTIIVTQNRNRERVDFPDGGYSLKLSKLKKNDSGIYYVGIYSSSLQQPSTQEYVLHVYEHLSKPKVTMGLQSNKNGTCVTNLTCCMEHGEEDVIYTWKALGQAANESHNGSILPISWRWGESDMTFICVARNPVSRNFSSPILARKLCEGAADDPDSSMVLLCLLLVPLLLSLFVLGLFLWFLKRERQEEYIEEKKRVDICRETPNICPHSGENTEYDTIPHTNRTILKEDPANTVYSTVEIPKKMENPHSLLTMPDTPRLFAYENVI,no change

# Target: not listed separately
# Assay: immunoblot of SLAMF7 in co-transfected SNU761 cells
# Details: glycan lost; control: Strep-TM4SF5 WT
row,Molecule,other: downregulation of SLAMF7 level
1,TM4SF5: Gly− (protein) parent chain: MCTGKCARCVGLSLITLCLVCIVANALLLVPNGETSWTNTNHLSLQVWLMGGFIGGGLMVLCPGIAAVRAGGKGCCGAGCCGNRCRMLRSVFSSAFGVLGAIYCLSVSGAGLRNGPRCLMNGEWGYHFEDTAGAYLLNRTLWDRCEAPPRVVPWNVTLFSLLVAASCLEIVLCGIQLVNATIGVFCGDCRKKQDTPH,abolishes

# Target: not listed separately
# Assay: confocal immunofluorescence colocalisation
# Details: glycan lost; control: FLAG-SLAMF7 WT
row,Molecule,localisation_or_trafficking
1,SLAMF7: NQ#6 (protein) parent chain: MAGSPTCLTLIYILWQLTGSAASGPVKELVGSVGGAVTFPLKSKVKQVDSIVWTFNTTPLVTIQPEGGTIIVTQNRNRERVDFPDGGYSLKLSKLKKNDSGIYYVGIYSSSLQQPSTQEYVLHVYEHLSKPKVTMGLQSNKNGTCVTNLTCCMEHGEEDVIYTWKALGQAANESHNGSILPISWRWGESDMTFICVARNPVSRNFSSPILARKLCEGAADDPDSSMVLLCLLLVPLLLSLFVLGLFLWFLKRERQEEYIEEKKRVDICRETPNICPHSGENTEYDTIPHTNRTILKEDPANTVYSTVEIPKKMENPHSLLTMPDTPRLFAYENVI,abolishes
2,SLAMF7: NQ#123 (protein) parent chain: MAGSPTCLTLIYILWQLTGSAASGPVKELVGSVGGAVTFPLKSKVKQVDSIVWTFNTTPLVTIQPEGGTIIVTQNRNRERVDFPDGGYSLKLSKLKKNDSGIYYVGIYSSSLQQPSTQEYVLHVYEHLSKPKVTMGLQSNKNGTCVTNLTCCMEHGEEDVIYTWKALGQAANESHNGSILPISWRWGESDMTFICVARNPVSRNFSSPILARKLCEGAADDPDSSMVLLCLLLVPLLLSLFVLGLFLWFLKRERQEEYIEEKKRVDICRETPNICPHSGENTEYDTIPHTNRTILKEDPANTVYSTVEIPKKMENPHSLLTMPDTPRLFAYENVI,no change
3,SLAMF7: NQ#456 (protein) parent chain: MAGSPTCLTLIYILWQLTGSAASGPVKELVGSVGGAVTFPLKSKVKQVDSIVWTFNTTPLVTIQPEGGTIIVTQNRNRERVDFPDGGYSLKLSKLKKNDSGIYYVGIYSSSLQQPSTQEYVLHVYEHLSKPKVTMGLQSNKNGTCVTNLTCCMEHGEEDVIYTWKALGQAANESHNGSILPISWRWGESDMTFICVARNPVSRNFSSPILARKLCEGAADDPDSSMVLLCLLLVPLLLSLFVLGLFLWFLKRERQEEYIEEKKRVDICRETPNICPHSGENTEYDTIPHTNRTILKEDPANTVYSTVEIPKKMENPHSLLTMPDTPRLFAYENVI,abolishes
